Molecular target: CA1.CD2 PEGylated with P40 (rat)
Assay: Western blot; PEGylated (P40) against unmodified CA1.CD2

- decrease of binding against unPEGylated CA1.CD2: 50%
Substance: antibody OX34

From patent US20240082434A1
